Data on 4 molecules can be found in patent US20260315592 (published 2026).

The experiment deals with ENPP3 (human).
ENPP3 (human), sequence (chain, as listed by the source): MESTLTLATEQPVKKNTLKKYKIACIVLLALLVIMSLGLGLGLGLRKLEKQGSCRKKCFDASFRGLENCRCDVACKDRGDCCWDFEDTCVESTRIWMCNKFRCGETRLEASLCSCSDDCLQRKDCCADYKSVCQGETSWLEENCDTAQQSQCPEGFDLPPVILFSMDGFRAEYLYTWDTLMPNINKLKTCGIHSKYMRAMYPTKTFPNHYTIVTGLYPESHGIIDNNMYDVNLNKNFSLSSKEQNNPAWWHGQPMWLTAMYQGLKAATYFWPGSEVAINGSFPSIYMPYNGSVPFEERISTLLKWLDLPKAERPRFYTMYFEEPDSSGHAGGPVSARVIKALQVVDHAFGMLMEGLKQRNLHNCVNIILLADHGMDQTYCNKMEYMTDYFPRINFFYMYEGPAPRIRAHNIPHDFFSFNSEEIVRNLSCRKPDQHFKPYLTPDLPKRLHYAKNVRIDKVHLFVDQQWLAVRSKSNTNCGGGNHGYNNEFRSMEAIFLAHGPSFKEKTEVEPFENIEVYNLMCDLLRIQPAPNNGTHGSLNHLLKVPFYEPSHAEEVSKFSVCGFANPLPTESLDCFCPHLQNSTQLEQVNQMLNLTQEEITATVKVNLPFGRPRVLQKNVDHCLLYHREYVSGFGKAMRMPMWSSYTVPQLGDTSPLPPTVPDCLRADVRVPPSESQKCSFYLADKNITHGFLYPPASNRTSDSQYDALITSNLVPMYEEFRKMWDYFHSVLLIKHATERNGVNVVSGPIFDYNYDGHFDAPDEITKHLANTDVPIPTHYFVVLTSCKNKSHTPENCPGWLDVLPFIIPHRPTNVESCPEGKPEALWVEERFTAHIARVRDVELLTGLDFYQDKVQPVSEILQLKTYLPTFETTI

B1: SX13-7 (CAR46) (antibody)
chain: QLVESGGGLVKPGGSLRLSCAASGFTFSDYSMNWVRQAPGKGLEWVSSISSSSSYKKYADSVKGRLTISRDNAKNSLYLQMNSLRAEDTAVYYCARGIDYFDYWGQGTLVTVSSSGGGGSGGGGSGGGGSDIQLTQSPSFLSASVGDRVTITCRASQGISSNLAWYQQKPGKDPKVLIYGASTLQSGVPSRFSGSGSGTEFTLTISSLQPEDFATYYCQQLNSYPRTFGQGTKVEIK
What is called Kd is the equilibrium constant for the complex coming apart. A higher Kd goes with lower affinity. B1 returned a Kd of 4.24 nM.

B2: SX13-1 (CAR42) (antibody)
chain: QLVESGGGLVKPGGSLRLSCAASGFTFSDYSMNWVRQAPGKGLEWVSSISSSSRYKYYADSMKGRFTISRDNAKNSLYLQMNSLRVEDTAVYYCTRGIDYFDYWGQGTLVTVSSSGGGGSGGGGSGGGGSDIQLTQSPSFLSASVGDRVTITCRASQDINNYLAWYQQKPGKAPKFLIHVASTLQSGVPSRFSGSGSGTEFTLTISSLQPEDSATYYCQQLNSYPRTFGQGTKVEIK
As for B2, the Kd is 18.9 nM.

B3: SX13-12 (CAR49) (antibody)
chain: QLVESGGGLVKPGGSLRLSCAASGFTFSDYSMNWVRQAPGKGLNWVASISSSSHYKYYADSVKGRFTISRDNAKNSLYLQMNSLRAEDTAVYYCARGIDFFDIWGQGTMVTVSSSGGGGSGGGGSGGGGSDIQLTQSPSFLSASVGDRVTITCRASQDINSYLVWYQQKPGKAPKLLIYTASTLQSGVPSRFSGSGSGTEFTLTIRSLQPEDFATYYCQQLNSYPRTFGQGTKVEIK
Regarding B3, the Kd came out at 23.5 nM.

B4: SX13-10 (CAR48) (antibody)
chain: QLLESGGGLVKPGGSLRLSCAASGFTFSRYNMNWVRQAPGKGLEWVSFISGSSSYVYYADSVKGRFTISKDNAKNSLYLQMNSLRAEDTAVYYCARSGYCTSTTCYNYYYYYMDVWGKGTTVTVSSSGGGGSGGGGSGGGGSEIVLMQSPGTLSLSPGERATLSCRASQSVSNSYLAWYQQKPGQAPRLLIYGASSRATGIPDRFSGSGSGTDFTLTISRLEPEDFAVFYCQQFGSSPLTFGGGTKVEIK
B4: the equilibrium dissociation constant (Kd) was determined as 113 nM.
